According to US20220390449A1, “NEW S[…] FOR THE LATENT FORM OF TOXOPLASMOSIS” (INSERM (INSTITUT NATIONAL DE LA SANTÉ ET DE LA RECHERCHE …, priority 2019, published 2022):

Columns and labels:
TgHDAC3 = settings: low doses, RH strain; cited from earlier work
[1] = system: T. gondii-infected HFF cells; experiment: FR235222 treatment and induction of BCLA (proteomics, western blot, immunofluorescence); format: cell-based, Toxoplasma gondii
Method: Host cells and parasites culture. HFF primary cells (Bougdour et al., 2009), RAW264.7, L929, HCT116, A549 and HEK293 cells were cultured in Dulbecco's Modified eagle Medium (DMEM) (Thermo fischer Scientific, France) supplemented with 10% heat-inactivated fetal Bovine Serum (FBS) (Invitrogen), 10 mM (4-(2-hydroxyethyl)-1-piperazine ethanesulphonic acid) (HEPES) buffer pH 7.2, 2 mM L-glutamine and 50 μg/ml of penicillin and streptomycin (Thermo Fisher Scientific). Cells were incubated at 37° C. in 5% CO2. The following Toxoplasma strains were used in this study: type I (RH, GT1), type II (ME49), type III (CTG), atypical (COUG), Neospora caninum; RHΔku80 (Huynh and Carruthers, 2009), PruΔku80 (Fox et al., 2011), PruA7 (Saeij et al., 2007), COUGΔmyr1 (Hakimi, unpublished), PruΔku80Δbcla, PruΔku80-HF-BCLA and 76k-GFP-luc-Δbcla obtained in this study. All parasite strains were maintained in vitro by serial passage on monolayers of HFFs. T. gondii transfection. T. gondii RHΔku80, PruΔku80 and 76k-GFP-luc were electroporated with vectors in cytomix buffer (120 mM KCl, 0.15 mM CaCl2, 10 mM K2HPO4/KH2PO4, pH 7.6, 25 mM HEPES pH 7.6, 2 mM EGTA, 5 mM MgCl2) using a BTX ECM 630 machine (Harvard Apparatus). Electroporation was performed in a 2 mm cuvette at 1.100 V, 25Ω and 25 μF. Stable transgenic parasites were selected with 1 μM pyrimethamine, single-cloned in 96 well plates by limiting dilution and verified by immunofluorescence assay.
FR235222 treatment and induction. FR235222 was provided by Astellas Pharma Inc. (Osaka, Japan) and dissolved into DMSO as described by Bougdour et al., 2009 and the final concentration in culture medium was either 25 ng/mL or 50 ng/mL. The media containing FR235222 was added to infected HFF cells 16 hours after infection for 24 h to 7 days.
Immunofluorescence microscopy. Immunofluorescence assays on in vitro parasites were performed as described previously (Braun et al., 2013). In brief, T. gondii-infected HFF cells grown on coverslips or cysts purified from brains of mice were fixed in 3% formaldehyde for 20 min at room temperature, permeabilised with 0.1% (v/v) Triton X-100 for 15 min and blocked in phosphate-buffered saline (PBS) containing 3% (v/v) bovine serum albumin (BSA). For immunolabeling on histological sections of brains, the brain layers spotted on glass slides were first solvent-dewaxed using toluene for 3*10 min and absolute alcohol for 3*10 min. The slides were then treated with citrate buffer pH 6, heated at 100° C. during 1 hour, rinsed with water for 2*10 min and blocked in PBS containing 3% (v/v) bovine serum albumin (BSA). The cells or brain layers were then incubated for 1 hour with the primary antibodies indicated in the figures followed by the addition of secondary antibodies conjugated to Alexa Fluor 488 or 594 (Molecular Probes) at a 1:1,000 dilution for 1 hour. Nuclei of both host cells and parasites were stained for 10 min at room temperature with Hoechst 33258 at 2 μg/ml in PBS. Coverslips were mounted on a glass slide with Mowiol mounting medium, images were acquired with a fluorescence ZEISS ApoTome.2 microscope and images were processed by ZEN software (Zeiss).
Western Blot. Proteins were separated by SDS-PAGE and transferred to a polyvinylidene fluoride membrane (Immobilon-P; EMP Millipore) by liquid transfer, and Western blots were probed using appropriate primary antibodies followed by phosphatase-conjugated goat secondary antibodies (Promega). Signals were detected using NBT-BCIP (Amresco).

[2] = system: trypsin, chymotrypsin, elastase and papain; experiment: Limited proteolysis of rBCLA; format: physicochemical; settings: 1/30 w/w, up to 50 minutes at 37° C.
Method: Limited proteolysis to find antigenic sub-fragments within Cter-BCLA. To recover a highly antigenic sub-fragment of Cter-BCLA, a limited proteolysis on the purified sample was undertaken using trypsin, chymotrypsin, elastase and papain (all Sigma Aldrich). Reactions were carried out in 30 μl reaction volume in 50 mM Tris pH 8.0, 150 mM NaCl, 5 mM BME and 0.5 mM MgCl2. In each reaction, 3 μg of Cter-BCLA were digested by 100 ng of protease (1/30 w/w) over the course of 50 minutes at 37° C. Reactions were stopped at each time point by the addition of 10 μl of SDS PAGE loading buffer followed by 5 minutes heating at 95° C. then kept on ice until loading on the gel.

[3] = system: anti-T. gondii IgG antibodies of mice; experiment: Western-blot BCLA serological testing on mice sera; format: binding
[4] = system: anti-T. gondii IgG antibodies of mice; experiment: Western-blot BCLA serological testing on mice sera; format: binding; remark: listed apart in the source
Method: Mice and Experimental Infection. 6-weeks-old BALBC/c, CBA, NMRI or Swiss mice were obtained from Janvier Laboratories (Le Genest-Saint-Isle, France). Mouse care and experimental procedures were performed under pathogen free conditions in accordance with established institutional guidance and approved protocols from the Institutional Animal Care and Use Committee of the University Grenoble Alpes (agreement no B3851610006). Female mice were used for all studies. For intraperitoneal (i.p.) infection, tachyzoites were grown in vitro and extracted from host cells by passage through a 27-gauge needle, washed three times in PBS, and quantified with a haemocytometer. Parasites were diluted in Hank's Balanced Salt Solution (Life), and mice were inoculated by the i.p. route with tachyzoites of each strain (in 200 μl) using a 28-gauge needle. For oral gavage of infective cysts, brains from chronically infected mice (76k-GFP-luc and 76k-GFP-luc-Δbcla) were crushed in PBS, the number of cysts was microscopically quantified and the mice were forced fed with 100 μl of brain homogenate containing 20 to 40 cysts using ball-tipped feeding needle. Blood was collected by caudal puncture or by intracardiac puncture when the mice were euthanised. Animal euthanasia was completed in an approved CO2 chamber. For histological analysis of ileum and immunolabeling on histological sections of brains or, the ilea and brains were removed from mice, entirely embedded in a paraffin wax block and cut in 5 μm-thick layers using microtome. For statistical analysis of mice survival data, the Mantel-Cox and Gehan-Breslow-Wilcoxon tests were used.
Western-blot BCLA serological testing. Single western blot strips were prepared using 15 well 4-12% NuPage gels (Life technologies) loaded with 5 μl of sample at 0.1 mg/ml. The gels were run at 185 v for 40 minutes in MES buffer then electro-transferred at 105 v for 1.5 h on PVDF membranes. The transferred lanes were then cut-out into individualized strips. The strips were then blocked in TTBS with 5% powdered milk (w/v) for 1 h. Serum testing was then performed in TTBS with a dilution of 1/400 of the serum for 1 h at 4° C. The strips were then washed 3 times in TTBS and further incubated 1 h with a 1/7500 dilution of secondary antibody targeting either mouse IgGs or human IgGs and coupled with a phosphatase alkaline enzyme (Promega). […] Bands in the positive sera appear within 1 to 5 minutes. In parallel to the serum testing, a single strip was always used as an internal antigen control for each blot set. After blocking, this strip was incubated for 1 h with a peroxidase coupled anti poly-histidine monoclonal antibody (Sigma) diluted 1/2000 in TTBS. […] For each series of i.p. or orally infected mice, a serum of at least on mouse of each series was checked for Toxoplasma antibodies using Western blot analysis of the IgG immune response using the commercial kit LD bio Toxoplasma mouse IgG (LD bio), with the same anti-mouse IgG-alkaline phosphatase conjugate and chromogenic substrate previously described for BCLA.

[5] = Solubility of rBCLA recombinantly expressed in E. coli; format: physicochemical; settings: native, N-terminal poly-histidine tag
Method: Recombinant expression. Transformation was performed using BL21(DE3)-CodonPlus—RIL chemically competent E. coli (Stratagene) which were incubated on ice with 1 μg of the pet30-(a) Cter-BCLA plasmid for 10 minutes, heat shocked at 42° C. for 45 seconds, pre-incubated 45 min in LB at 37° C. then spread on a LB agar plate containing Kanamycin (Kan) and Chloramphenicol (Chlo) and incubated for 12 h. A single colony was then picked to inoculate a LB/Kan/Chlo 50 ml pre-culture grown for 16 h. 5 ml of grown pre-culture were then used to inoculate 1 L flasks of Terrific Broth medium (Formedium) containing Chlo/Kan. Cultures were grown at 37° C. until reaching an OD600 of 0.5-0.8 then induced by adding 0.7 mM IPTG (VWR) and further incubated at 18° C. ON. After incubation, cells were centrifuged 25 min at 3000 G, the supernatant was discarded and the pellet flash frozen in liquid nitrogen and kept at −80° C.
Lysis. Purification was performed on 3 pellets of 1 L cultures, each resuspended in 50 ml of lysis buffer containing 600 mM NaCl, 50 mM Tris pH 8, 5 mM Beta-mercaptoethanol (BME), 0.2% w/v N-Lauryl Sarkozine and 1 Complete anti protease cocktail (Roche) tab per 50 ml. Lysis was performed using a 10 mini-pulsed sonication (15 sec ON, 30 sec OFF) at 50° amplitude over ice with the lysate never reaching a temperature over 13° C. […]

## FR235222
TgHDAC3
  in vitro tachyzoite to bradyzoite stage conversion: induces
[1]; FR235222 90 nM versus DMSO 0.1%, type II (PruΔku80) strain in primary human fibroblasts
  BCLA protein induction (quantitative proteomics LC-MS/MS): significantly induced
[1]; FR235222 versus untreated tachyzoites
  BCLA signal intensity (western blot, ~140-kDa band): significantly increased
[1]; type I (GT1 and RHΔku80) and haplogroup 11 (COUG) strains
  BCLA signal intensity upon FR235222 (immunofluorescence, per PV): rather moderate
[1]; type II (PruΔku80, ME49, 76K-GFP-Luc) strain
  BCLA signal intensity upon FR235222 (immunofluorescence, per PV): very strong induction
[1]; type III (CTG) strain
  BCLA signal intensity upon FR235222 (immunofluorescence, per PV): faint (if no) signal

B1: rBCLA: C-terminal antigenic domain, res 1089-1275 of BCLA (SEQ ID NO:2), expressed in E. coli as recombinant protein (protein)
chain: MIPGVGDKTEASVLDSIENAVQKVLENLLKAAAGELQPAEAEEARLLVADLKAVVDTAEQVRVEGEAFFRASVDLYEAVKNLRDSEEKLRPLTKGELVDVVRQFLATQIFVQDRASAFLRVFERLAELLAAEQMKAVFAMVEEGVSSSERVARVAGELVPMMKKDRERRYGDLVAVTSWFMRRMEHI
modifications: Synthetic C-terminal antigenic domain (res 1089-1275)
[2]; chymotrypsin
  degradation by protease (SDS PAGE): quickly degraded
[2]; elastase, trypsin and papain, stable fragments around the 17-kDa marker
  degradation by protease (SDS PAGE): partially degraded
[3]; FIG. 8c: C57BL/6 mice, oral 47 cysts 76k-GFP-luc or 76k-GFP-luc-Δbcla (type II), 8 days (acute)
  reactivity of rBCLA with mice sera (immunoblot): not reacting
[3]; mice sera, data not shown
  reactivity of rBCLA with anti-T. gondii IgM and IgA: not reacting
[4]; FIG. 8a: NMRI mice, i.p. 10^4 tachyzoites COUG and COUG-Δmyr1, 7 days (acute)
  reactivity of rBCLA with mice sera (immunoblot): not reacting
[4]; FIG. 8b: CBA mice, i.p. 10^3 tachyzoites RH (type I), 7 days (acute)
  reactivity of rBCLA with mice sera (immunoblot): not reacting
[4]; FIG. 9a: Balb/c mice, i.p. 10^3 to 10^6 tachyzoites PruA7 (type II), 42 days
  reactivity of rBCLA with mice sera (immunoblot): reacting quite proportionally
[4]; FIG. 9b: CBA mice, i.p. 10^6 tachyzoites ME49 (type II), 80 days
  reactivity of rBCLA with mice sera (immunoblot): strongly reacting
[4]; FIG. 9c: NMRI mice, oral 20 cysts 76k-GFP-luc (type II), 22 months
  reactivity of rBCLA with mice sera (immunoblot): strongly reacting
[4]; FIG. 9e: CBA mice, i.p. 10^3 tachyzoites RH (type I) followed by pyrimethamine or sulfadiazine treatment, 22 days
  reactivity of rBCLA with mice sera (immunoblot): very slightly reacting
[4]; FIG. 9f: NMRI mice, i.p. 10^6 tachyzoites CTG (type III), 42 days
  reactivity of rBCLA with mice sera (immunoblot): not reacting
[4]; FIG. 9g: NMRI mice, i.p. 10^6 tachyzoites PruΔku80 (type II), 42 days
  reactivity of rBCLA with mice sera (immunoblot): not reacting
[4]; FIG. 11a: Swiss mice i.p. infected with T. gondii PCR positive human amniotic fluid (confirmed congenital toxoplasmosis)
  reactivity of rBCLA with mice sera (immunoblot): strongly reacting
[4]; FIG. 9h: Balb/c mice, i.p. 10^5 tachyzoites 76k-GFP-luc (type II), reactivating or not with corticosteroids, 42 days
  reactivity of rBCLA with mice sera (immunoblot): strongly reacting
[4]; FIG. 9d: Balb/c mice, i.p. 10^6 tachyzoites 76k-GFP-luc (type II), 21 days
  reactivity of rBCLA with mice sera (immunoblot): strongly reacting
[4]; FIG. 9d: Balb/c mice, i.p. 10^6 tachyzoites 76k-GFP-luc-Δbcla (type II), 21 days
  reactivity of rBCLA with mice sera (immunoblot): barely reacting
[5]
  solubility on expression in E. coli: natively insoluble
